Data: patent US11957763B2, “Sulfamide linkers for use in bioconjugates” (SYNAFFIX B.V., priority 2016, dated 2024)

Tests used:
Format in all cases: biochemical
[1] = tested on: Trastuzumab having high-mannose glycans; experiment: Trimming of high-mannose trastuzumab by fusion protein EndoSH; conditions: 1 w/w % EndoSH, 37° C., after 3 hours, 25 mM Tris buffer pH 8, MS analysis
Protocol: Trastuzumab having high-mannose glycans (obtained via transient expression in CHO K1 cells in the presence of kifunensine performed by Evitria (Zurich, Switzerland)) (14 mg/mL) in 25 mM Tris buffer pH 8, was trimmed using a concentration of either 0.1 or 1 w/w % EndoSH. The reactions, 350 μg high-mannose trastuzumab (25 μL) and the appropriate amount of EndoSH, were stirred at 37° C. and analyzed by MS analysis over time, 1-3 hours. Samples were subjected to Fabricator treatment prior to analysis.
Prior to mass spectral analysis, IgGs were either treated with DTT, which allows analysis of both light and heavy chain, or treated with Fabricator™ (commercially available from Genovis, Lund, Sweden), which allows analysis of the Fc/2 fragment. For analysis of both light and heavy chain, a solution of 20 μg (modified) IgG was incubated for 5 minutes at 37° C. with 100 mM DTT in a total volume of 4 μL. If present, azide-functionalities are reduced to amines under these conditions. For analysis of the Fc/2 fragment, a solution of 20 μg (modified) IgG was incubated for 1 hour at 37° C. with Fabricator™ (1.25 U/μL) in phosphate-buffered saline (PBS) pH 6.6 in a total volume of 10 μL. […] Next, the samples were analyzed by electrospray ionization time-of-flight (ESI-TOF) on a JEOL AccuTOF. […]

glycans on glycoproteins = experiment: pH at which the endoglycosidase activity operates
Source text: Trimming of glycoproteins is known in the art, from e.g. WO 2007/133855 or WO 2014/065661.

Trastuzumab = experiment: Trimming of trastuzumab by EndoSH; conditions: 0.1 w/w % EndoSH, 37° C., after 1 hour, 25 mM Tris buffer pH 8, MS analysis
Protocol: Trastuzumab (obtained from Epirus biopharma (Utrecht, The Netherlands)) in 25 mM Tris buffer pH 8), (14 mg/mL) was trimmed using a concentration of either 0.1 or 1 w/w % EndoSH. The reactions, 350 μg trastuzumab (25 μL) and the appropriate amount of EndoSH, were stirred at 37° C. and analyzed by MS analysis overtime, 1 to 3 hours. Samples were subjected to Fabricator treatment prior to analysis.
Prior to mass spectral analysis, IgGs were either treated with DTT, which allows analysis of both light and heavy chain, or treated with Fabricator™ (commercially available from Genovis, Lund, Sweden), which allows analysis of the Fc/2 fragment. For analysis of both light and heavy chain, a solution of 20 μg (modified) IgG was incubated for 5 minutes at 37° C. with 100 mM DTT in a total volume of 4 μL. If present, azide-functionalities are reduced to amines under these conditions. For analysis of the Fc/2 fragment, a solution of 20 μg (modified) IgG was incubated for 1 hour at 37° C. with Fabricator™ (1.25 U/μL) in phosphate-buffered saline (PBS) pH 6.6 in a total volume of 10 μL. After reduction or Fabricator-digestion the samples were washed trice with milliQ using an Amicon Ultra-0.5, Ultracel-10 Membrane (Millipore) resulting in a final sample volume of approximately 40 μL. Next, the samples were analyzed by electrospray ionization time-of-flight (ESI-TOF) on a JEOL AccuTOF. […]

B1: EndoSH: fusion enzyme of endoglycosidases EndoS and EndoH connected via a -(G4S)3-(His)6-(G4S)3- linker, SEQ ID NO: 1 (protein)
chain: MPSIDSLHYLSENSKKEFKEELSKAGQESQKVKEILAKAQQADKQAQELAKMKIPEKIPMKPLHGPLYGGYFRTWHDKTSDPTEKDKVNSMGELPKEVDLAFIFHDWTKDYSLFWKELATKHVPKLNKQGTRVIRTIPWRFLAGGDNSGIAEDTSKYPNTPEGNKALAKAIVDEYVYKYNLDGLDVDVEHDSIPKVDKKEDTAGVERSIQVFEEIGKLIGPKGVDKSRLFIMDSTYMADKNPLIERGAPYINLLLVQVYGSQGEKGGWEPVSNRPEKTMEERWQGYSKYIRPEQYMIGFSFYEENAQEGNLWYDINSRKDEDKANGINTDITGTRAERYARWQPKTGGVKGGIFSYAIDRDGVAHQPKKYAKQKEFKDATDNIFHSDYSVSKALKTVMLKDKSYDLIDEKDFPDKALREAVMAQVGTRKGDLERFNGTLRLDNPAIQSLEGLNKFKKLAQLDLIGLSRITKLDRSVLPANMKPGKDTLETVLETYKKDNKEEPATIPPVSLKVSGLTGLKELDLSGFDRETLAGLDAATLTSLEKVDISGNKLDLAPGTENRQIFDTMLSTISNHVGSNEQTVKFDKQKPTGHYPDTYGKTSLRLPVANEKVDLQSQLLFGTVTNQGTLINSEADYKAYQNHKIAGRSFVDSNYHYNNFKVSYENYTVKVTDSTLGTTTDKTLATDKEETYKVDFFSPADKTKAVHTAKVIVGDEKTMMVNLAEGATVIGGSADPVNARKVFDGQLGSETDNISLGWDSKQSIIFKLKEDGLIKHWRFFNDSARNPETTNKPIQEASLQIFNIKDYNLDNLLENPNKFDDEKYWITVDTYSAQGERATAFSNTLNNITSKYWRVVFDTKGDRYSSPVVPELQILGYPLPNADTIMKTVTTAKELSQQKDKFSQKMLDELKIKEMALETSLNSKIFDVTAINANAGVLKDCIEKRQLLKKGGGGSGGGGSGGGGSHHHHHHEFGGGGSGGGGSGGGGSAPAPVKQGPTSVAYVEVNNNSMLNVGKYTLADGGGNAFDVAVIFAANINYDTGTKTAYLHFNENVQRVLDNAVTQIRPLQQQGIKVLLSVLGNHQGAGFANFPSQQAASAFAKQLSDAVAKYGLDGVDFDDEYAEYGNNGTAQPNDSSFVHLVTALRANMPDKIISLYNIGPAASRLSYGGVDVSDKFDYAWNPYYGTWQVPGIALPKAQLSPAAVEIGRTSRSTVADLARRTVDEGYGVYLTYNLDGGDRTADVSAFTRELYGSEAVRTP
modifications: Fusion protein EndoSH
conversion to the trimmed product, trimmed to the core GlcNAc sugar residue [1]: Full conversions | pH at which both activities (EndoS and EndoH) of the fusion enzyme function smoothly (glycans on glycoproteins): 7-8 | conversion to the trimmed product, trimmed to the core GlcNAc sugar residue (Trastuzumab): Full conversions
